Measured values: patent US11278600B2, “Human alpha-galactosidase variants” (Codexis, Inc., priority 2014, dated 2022)

What was measured:
Type in all cases: biochemical
[1] = HTP-analysis of yeast culture supernatants, no challenge (MUGal hydrolysis); details: activity of the variant/activity of Rd2BB (SEQ ID NO: 10), yeast culture supernatant
Summary of the method: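 Activity read as 4-methylumbelliferyl α-D-galactopyranoside hydrolysis: fluorescence (355/448 nm) after sodium carbonate stop, following 30-180 min at 37° C with 2 mM MUGal stock at pH 4.6–4.8. Enzyme source is unchallenged culture supernatant of INVSc1 yeast expressing GLA variants, grown 66-84 h at 30° C.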

[2] = HTP-analysis of supernatants pretreated with acid (MUGal hydrolysis); details: challenge at pH 4.2; activity of the variant/activity of Rd2BB (SEQ ID NO: 10); yeast culture supernatant
Summary of the method: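 Supernatants from INVSc1 yeast secreting GLA variants were challenged at 37° C. for 1-3 h in McIlvaine buffer at pH 3.3-4.3. Residual activity was then measured on 4 mM MUGal substrate stock at pH 4.8 with citrate buffer pH 4.3, over 30-180 min at 37° C. Reactions were quenched with sodium carbonate and read by fluorescence (Ex 355/Em 448 nm).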

[3] = HTP-analysis of supernatants pretreated with base (MUGal hydrolysis); details: challenge at pH 7.6; activity of the variant/activity of Rd2BB (SEQ ID NO: 10); yeast culture supernatant
Summary of the method: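 GLA variants secreted from yeast INVSc1; culture supernatants pre-incubated with McIlvaine buffer pH 7.0–8.2 or 200 mM bicarbonate pH 9.1–9.7 at 37° C. for 1–18 h. Residual activity: MUGal (4 mM stock) hydrolysis at pH 4.3–4.8, 37° C., 30–180 min, carbonate quench; fluorescence Ex 355/Em 448 nm.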

[4] = HTP-analysis of supernatants pretreated with bovine serum (MUGal hydrolysis); details: activity of the variant/activity of Rd2BB (SEQ ID NO: 10), yeast culture supernatant
Method: Yeast (INVSc1) cells transformed with vectors expressing GLA and GLA variants using the lithium acetate method were selected on SD-Ura agar plates. After 72 h incubation at 30° C. colonies were placed into the wells of Axygen® 1.1 ml 96-well deep well plates filled with 200 μl/well SD-Ura broth (2 g/L SD-Ura, 6.8 g/L yeast nitrogen base without amino acids [Sigma Aldrich]), 3.06 g/L sodium dihydrogen phosphate, 0.804 g/L disodium hydrogen phosphate, pH 6.0 supplemented with 6% glucose. The cells were allowed to grow for 20-24 hours in a Kuhner shaker (250 rpm, 30° C., and 85% relative humidity). Overnight culture samples (20 μL) were transferred into Corning Costar® 96-well deep plates filled with 380 µL of SD-ura broth supplemented with 2% glucose. The plates were incubated for 66-84 h in a Kuhner shaker (250 rpm, 30° C., and 85% relative humidity). The cells were then pelleted (4000 rpm×20 min), and the supernatants isolated and stored at 4° C. prior to analysis.
GLA variants were challenged with bovine serum to simulate the conditions the variants encounter following infusion into a patient. First, 20 μL of yeast culture supernatant and 80 μL, of bovine serum were added to the wells of a 96-well round bottom plate. The plates were sealed and incubated at 37° C. for 1 h. For the assay, 50 μL of serum-challenged sample was mixed with 25 μL, of 1 M citrate buffer pH 4.3 and 25 μL, of 4 mM MUGal in McIlvaine buffer pH 4.8. The reactions were mixed briefly and incubated at 37° C. for 180 minutes, prior to quenching with 100 μL, of 1 M sodium carbonate. Hydrolysis was analyzed using a SpectraMax® M2 microplate reader monitoring fluorescence (Ex. 355 nm, Em. 448 nm).

Row | Molecule | Relative Activity of GLA Variants After No Challenge (NC) [1] | Relative Activity of GLA Variants After Challenge at pH 4.2 [2] | Relative Activity of GLA Variants After Challenge at pH 7.6 [3] | Relative Activity of GLA Variants After Challenge with Serum [4]
1 | 246 (protein, Synthetic Polypeptide sequence of Variant No. 246 of mature Human GLA) LDNGLARTPTMGWLHWERFMCNLDCQEEPDSCISEKLFMEMAELMVSEGWKDAGYEYLCIDDCWMAPQRDSEGRLQADPQRFPHGIRQLANYVHSKGLKLGIYADVGNKTCAGFPGSFGYYDIDAQTFADWGVDLLKFDGCYCDSLENLADGYKHMSLALNRTGRSIVYSCEWPLYMWPFQKPNYTEIRQYCNHWRNFADIDDSWASIKSILDWTSFNQERIVDVAGPGGWNDPDMLVIGNFGLSWNQQVTQMALWAIMAAPLFMSNDLRHISPQAKALLQDKDVIAINQDPLGKQGYQLRKGDNFEVWERPLSGDAWAVAMINRQEIGGPRSYTIPVASLGKGVACNPACFITQLLPVKRKLGFYEWTSRLRSHINPTGTVLLQLENTMQMSLKDLL | +++ (+++ = >2.5 relative activity over Rd2BB (SEQ ID NO: 10)) | +++ (+++ = >2.5 relative activity over Rd2BB (SEQ ID NO: 10)) | +++ (+++ = >2.5 relative activity over Rd2BB (SEQ ID NO: 10)) | +++ (+++ = >2.5 relative activity over Rd2BB (SEQ ID NO: 10))
2 | 247 (protein, Synthetic Polypeptide sequence of Variant No. 247 of mature Human GLA) LDNGLARTPTMGWLHWERFMCNLDCQEEPDSCISEKLFMEMAELMVSEGWKDAGYEYLCIDDCWMAPQRDSEGRLQADPQRFPHGIRQLANYVHSKGLKLGIYADVGNKTCAGFPGSFGYYDIDAQTFADWGVDLLKFDGCYCDSLENLADGYKHMSLALNRTGRSIVYSCEWPLYMWPFQKPNYTEIRQYCNHWRNFADIDDSWASIKSILDWTSFNQEKIVDVAGPGGWNDPDMLVIGNFGLSWDQQVTQMALWAIMAAPLFMSNDLRHISPQAKALLQDKDVIAINQDPLGKQGYQLRQGDNFEVWERPLSGLAWAVAVINRQEIGGPRSYTIAVASLGDGVACNPACFITQLLPVKRKLGFYEWTSRLKSHINPTGTVLLQLENTMQMSLKDLL | +++ (+++ = >2.5 relative activity over Rd2BB (SEQ ID NO: 10)) | +++ (+++ = >2.5 relative activity over Rd2BB (SEQ ID NO: 10)) | +++ (+++ = >2.5 relative activity over Rd2BB (SEQ ID NO: 10)) | +++ (+++ = >2.5 relative activity over Rd2BB (SEQ ID NO: 10))
3 | 248 (protein, Synthetic Polypeptide sequence of Variant No. 248 of mature Human GLA) LDNGLARTPTMGWLHWERFMCNLDCQEEPDSCISEKLFMEMAELMVSEGWKDAGYEYLCIDDCWMAPQRDSEGRLQADPQRFPHGIRQLANYVHSKGLKLGIYADVGNKTCAGFPGSFGYYDIDAQTFADWGVDLLKFDGCYCDSLENLADGYKHMSLALNRTGRSIVYSCEWPLYMWPFQKPNYTEIRQYCNHWRNFADIDDSWASIKSILDWTSFNQETIVDVAGPGGWNDPDMLVIGNFGLSWNQQVTQMALWAIMAAPLFMSNDLRHISPQAKALLQDKDVIAINQDPLGKQGYQLRQGDNFEVWERPLSGLAWAVAVINRQEIGGPRSYTIAVASLGGGVACNPACFITQLLPVKRKLGFYEWTSRLKSHINPTGTVLLQLENTMQMSLKDLL | + (+ = 0.5 to 1.5 relative activity over Rd2BB (SEQ ID NO: 10)) | + (+ = 0.5 to 1.5 relative activity over Rd2BB (SEQ ID NO: 10)) | + (+ = 0.5 to 1.5 relative activity over Rd2BB (SEQ ID NO: 10)) | + (+ = 0.5 to 1.5 relative activity over Rd2BB (SEQ ID NO: 10))
